Test: soluble on expression in E. coli; label from the status in PepcDB or PDB records

Row | Sequence | soluble on expression in E. coli
1 | GPGSWIVSRGLNYSDPMNSVVARWVQHSRVRRLTTPISCFGLFIFTATCMQLPYDFRLLREASAGIDRQTALLKKSMDERYLAYREGKIAKEQLEAKEAEAFAKSMKVQ | soluble
2 | MDGISLYDDCVMLAYNKEVRRNCLPFTCGENDLDDFFLNDADLYADELLGKTYCWVTTEIPHRIVALFTLSNDSIKTRLISPNDKNRLQRNIVNPKRGRSYPAVLIGRLGVNLEYQGTSSHVGRQLMAFIKDWFRHEDNKTGCRFIVVDAYNEEKILRYYERNGFVPLYKTDVIEKQYYDIPQDEPLKTRLLYFDLKKD | not soluble
3 | MKRSIAPLLVCPACLPKERPLELTATAEADGDITAGHLSCKGCRRRFPIRDGIAVLLPDPDTGPSGGQWKYEEQGTLATYLWSHFADLAGDPEAGDAYASWASALAGNAETSLDAGCAVGRLTFELGQRSGLAVGFDLSLTFIRAARQLARERQIRFSLPREGNLRDEFRLTLPDCWRTDEVEFVVADALAIPFARETFDRTASLNLIDRVSYPLAHLYEMNRVARLSGASFLLSDPFSWSTANAPEEKWLGGTESGPYSGRGMDNVKAILGGKEAIIAPPWTVAREGSVWWKIRSHRNHFELIRSEFLVAERLEHHHHHH | not soluble
4 | RTDTIMVVNVGNHAKKIKMVSFMRDTLINIPGYSYNDNSYDLKLNSAFNLGEQEDHHGAEYVRRALKHNFDIDIKYYVMVDFETFAEAIDTLFPNGVKIDAKFATVGGVAVDSVEVPDDLRMKNGVVPNQTIEVGEQRMDGRTLLNYARFRKDDEGDFGRTVRQQQVMSAVMSQIKD | not soluble
5 | MPPANGKKGKKGGAAKAAAPEEDFDAILAEMQLADAKTAAKEATKKDAKGGKGKANGSAAATAAPEEAKQAWQAEIAAMKPIDEQFPDGKFPHGIDESPYYLKGKDGRVATDRESNEEKKALDISYEEVWQDYRRSAEAHRQVRKYVKSWIKPGMTMIEICERLETTSRRLIKEQGLEAGLAFPTGCSLNHCAAHYTPNAGDTTVLQYGDVCKIDYGIHVRGRLIDSAFTVHFDPKFDPLVEAVREATNAGIKESGIDVRLCDVGEIVEEVMTSHEVELDGKSYVVKPIRNLNGHSIAQYRIHAGKTVPIVKGGEQTKMEENEIYAIETFGSTGKGYVHDDMETSHYMKNFELADEKIPLRLQKSKGLLNLIDKNFATLAFCRRWIDRLGETKYLMALKDLCDKGIVDPYPPLCDVKGCYTAQWEHTILMRPTVKEVVSRGDDY | not soluble
6 | GPGSMSDDTRYMYPARKAHAMDLGSSLNPEGDQKQTWGSVASVADAMSPTAEIKPSAPQVTHFGTGLGMQSSTGDPTLQEADSDGDKTEAVNEFDLAAYSKEDLTQTLHKRIMSRMFSAFDVTQVGYLDINKLKELCVYVGRNMSQEASEKMFDELKGIDGHITFDVFWNWWTTYPDTKMTKDTFSLVSADFSVPYHQQQLKIKDEGEIFTPSYRVKYYFKDMETGLRRRVSPWHDVPLYVRDPVRTKPENIRANRYNFICEIPKWTRAKFEIATGEPFNPIKQDIKNGVPRFYKHGDMMWNYGAFPQTWESTEVIFEDGVSGDNDPIDGVEIGMRQMRVGEIHPVRILGVLGMIDDGQMDWKVICMSVNDPVARFIKDIDDIPKFLPGCLDALREWFRVYKICQGGVENKFAFNGEYKDKTYAMKVVDESHYMWENLRKIKKKEEV | soluble
7 | MGSDKIHHHHHHSSDDKDEQPILVTNVVMPASGTVFKPGEKVTIMAKGFQDNDEIMFDIRWPLQDEVLHEGYAKGGRGVITEKTATSITFLAPGHWPASTTEILLRRSGQMMSLGKISVADGQAPKDFQLYGIINSRSNTHRPHAIEYINLEKPQTAEIVRLADNQDFSCVVNLPGSWSLSGVWTKDDRRTTGLYDLSMNYWEKPGADQLVTMGIATANSVFGVYQGGDRLFVKTVNVMPYTRMYVPEKPDYGFLLPEGMKAEALSRYPCIQMSDGNILCSADNGDGTFSPVVLNGQNIEEKSIYVGEPIEAVALIPFWIVKPVEGMGTAKYTRVGGYIVSKRNGATITEGDGTEFRLWNPTTKMLDEPFTTFPNAACLVATLVSDDFKKQELYVLFDGSRNGRLIYVYDLLKGSWESLYPGGGFPYSEIVLAR | not soluble
8 | MGSDKIHHHHHHMSGDTCLCPASGAKPKISGFKGGGLGNKYVQLNVGGSLYYTTVRALTRHDTMLKAMFSGRMEVLTDKEGWILIDRCGKHFGTILNYLRDDTITLPQSRQEIQELMAEAKYYLIQGLVSTCQTALQDKKDSYQPVCNIPIITSLREEDRLIESSTKPVVKLLYNRSNNKYSYTSNSDDHLLKNIELFDKLSLRFNGRVLFIKDVIGDEICCWSFYGQGRKLAEVCCTSIVYATEKKQTKVEFPEARIYEETLNVLLYETPRVPDNSLLEATSRSRSQASPSEDEDTFELRDRVRRIHVKRYSTYDDRQLGHQSTHRD | not soluble
9 | MMQVLTRPPSGMPALVLNADFRPLSYYPLSLWPWQEVIKAVFLDRVDVVASYDQVIHSPSCEMRLPSVVALKQYVPQERPPAFTRFNLFLRDSFSCQYCGSPEDLTFDHVIPRSRGGRTTWENIVTACAPCNLSKGGRTPREAGMQPFHTARRPSMYELQERGRRFPPGRLHVSWLDYLYWDIELEALEHHHHHH | not soluble
10 | GFVGRFGASSATTDRSKIFTADFRDFETSFSFQPGVFWGYDDFLSSALLLDIGYNKDKYELKYTVNGGRLLENYDFNSISFGLFPRLNISFVSIGVGGGIKIPLSLKYSKEGDAYSYNKYSLDFGDIKDSFETFYIPYVKVSLDFLIKTKGKFMMSLGVYANYDFPININRNGLLKDISIDKESIAAFDIGFQIGAYLVNR | not soluble
11 | MLNLSGLSLSCEYQPFVCPHTKHIHGYEALARFYLGQGQAIAPNLVFEQLHENSNALAAVEFQAKTFQLKHAPARQSLFVNVDPHAANGVHTQKLLDLLSSHPQLTVEIIENTCISDAELANQLFHQFKTANLNVALDDIGAPHSMLSVDLMMNVDYLKFDRHWLNLVAEPHGIALLSALIEFGKRTGKQCILEGIETEAQLQLARELNVDLVQGFLFKPWFIRPEQSERLIC | soluble
12 | GPGSMEAGGDDLFVINDVEADQMEEVRDARPVEQAQETEADVMESVKGLVPLCVQHAQGPQLSSATFGYDIALMAKRPWAEPGAKLSDYFNYGFNEQSWRVYCAMQEKGEESLLANATAVLQKLELAARPG | soluble
13 | MAHHHHHHMSLEPTLRDLLHSKLQWIFVGGKGGVGKTTTSCALATLFASTPVHDAVTNTTRPRRVLLISTDPAHNLSDAFSQKFGKTPVPVNGMEETLFAMEVDPTTFTHGGFGAMLGFPGHIATDADAPSPFAALGNILKEAAGTLPGIDELSVFAEILRGVQQLSYDVVIFDTAPTGHTLRLLALPHTLNSTMEKLLSVEGLNTLIQAASAVLSSTTNLGDMSSLMPAFKQWRENVQEVQRQFTDAEKTAFICVCIPEFLSVYETERLVQELMKYDISCDSIVVNQLVLKPSSEPDCRMCNARQKIQSKYLAQIDSLYEDFHVVKMPLLSDEVRGVPALQRFAQFLLEPYDADRHGYIDVCGAAS | soluble
14 | MSLESPISEKKPPVIVQEVEQKPEVVEKENILIEQEKEVIKPLDVPLILQKPELMRGCEVTSLAMVLQFSGVKVDKMELASKIHYVPFQSNGLKGNMHKGFIGDMATFDKPGLGVFVEPILELAKLYVPDEKVMNLSYKEPEHIYEAIDRGLPVWVLTNARFKRLPDNQFYTWRTDTGEMKVTYHQHSVVVTDYDDQYVYINDPLKTDKHRAINRNNFEQSWIQMGRQAMTISIEGHHHHHH | not soluble
15 | MNFFSLHPNVYATGRPKGLIGMLENVWVSNHTPGEGTLYLISGFSNYNGGVRFYETFTEHINQGGRVIAILGGSTSQRLSSRQVVEELLNRGVEVHIINRKRILHAKLYGTSNNLGESLVVSSGNFTGPGMSQNIEASLLLDNNTTQSMGFSWNDMISEMLNQNWHIHNMTNATDASPGWNLLYDERTTNLTLDETERVTLIVTLGHADTARIQAAPGTTAGQGTQYFWLSKDSYDFFPPLTIRNRRGTKATYSSLINMNYIDINYTDTQCRVTFEAENNFDFRLGTGKLRYTGVAKSNDIAAITRVGDSDYELRIIKQGTPEHSQLDPYAVSFIGNRGKRFGYISNEEFGRIIGVTF | soluble
16 | EFRKLGEVCEILDNRRIPIAKNKRNPGIYPYYGANGIQDYIDSYIFDGDFVLVGEDGSVINKDNTPVVNWASGKIWVNNHAHVLQTKNELKLKFLYFYLQTIDVSYCVAGTPPKINQENLKKIAIPIPPLEIQQEIVKILDQFSI | not soluble
17 | MKNVVIHQIVTLIFTEDQLRAYWQKQESTVPFAALTDAQYMKLAEDMLAHSSHSQLEQHLLGGRWRTKEEAEGAVLAEDESRDDIHVEIIDTNAPAEPRRRMLIDRVREILCPHCSFTFYVREAASERRDWTCPACGSGFCDLTP | not soluble
18 | MGSQSETVCVTGASGFIGSWLVMRLLERGYTVRATVRDPTNVKKVKHLLDLPKAETHLTLWKADLADEGSFDEAIKGCTGVFHVATPMDFESKDPENEVIKPTIEGMLGIMKSCAAAKTVRRLVFTSSAGTVNIQEHQLPVYDESCWSDMEFCRAKKMTAWMYFVSKTLAEQAAWKYAKENNIDFITIIPTLVVGPFIMSSMPPSLITALSPITGNEAHYSIIRQGQFVHLDDLCNAHIYLFENPKAEGRYICSSHDCIILDLAKMLREKYPEYNIPTEFKGVDENLKSVCFSSKKLTDLGFEFKYSLEDMFTGAVDTCRAKGLLPPSHEKPVDGKT | soluble
19 | MSLKELYLIDALNIIFRNYHVMKNYPLLNTQGENVNAFIGFFKTLFFIIKEKNPEHLIITFDSEVPTFRKQKYPSYKATRDLPPDDLIPQIGWIKEGLLKAKIPIFEMEGYEADDLLASFAKKAAKNNYLTYIISPDKDLLQTMSEYVKILKIENNSFIEMDNEYVTKKFGVNSFQIKDYLAIVGDRSDNIPGIKGIGAKGAANLLREFKTLDGIYSNLEIINKKHRELLIKEKENAFLSYELVSLEENLKIPEIENFALKNFSEEIISLFEKHSAIALIKTYKKDILKQEKENADQKSLFKQEPTTNSLDDINTIDTENVKYRSITTKIELDDLIESLKKAKYISIDTETSSLDTYTAKLIGISISFKEFEGYYIPIEAKGKIYIEKNYIIQKFNNLFESNPKIIGQNYKFDYKILKNNGFNPIPPYFDTMIAAYLIDTNSKVSLDFLAEKYLMHKNIKYEDVIQKNDNFANISLEMATSYSSEDADITFRLFNIFTKKLKEDKLDKLMHEIEMPFNKVIIEMEEGHHHHHH | not soluble
20 | VSSGAGSDATGAGGVHAAGSGDRAVAAAVERAKATAARNIPAFDDLPVPADTANLREGADLNNALLALLPLVGVWRGEGEGRGPDGDYRFGQQIVVSHDGGDYLNWESRSWRLTATGDYQEPGLREAGFWRFVADPYDPSESQAIELLLAHSAGYVELFYGRPRTQSSWELVTDALARSRSGVLVGGAKRLYGIVEGGDLAYVEERVDADGGLVPHLSARLSRFVG | soluble
21 | MEERNEQVVEEVKEAQVEEAVTPENSEETVEEKSEAALLQEKVDELQAKLTETEGRTLRLQADFENYKRRVQMDKQAAEKYRAQSLVSDILPALDNFERAMQVEATDEQTKSLLQGMEMVHRQLLEALNKEGVEVIEAVGKQFDPNEHQAIMQVEDSEFESNAVVEEFQKGYKLKDRVIRPSMVKVNQ | not soluble
22 | MGSDKIHHHHHHMEVTRTDKAVTLTWNKEEVSEGTVVFVSSSPKLEANSEPVFKVTNDVDHYSYDTKDIPIYFFLETPNGYYAIVSERILPLESVFNFRDMGGYASKNGKHVKWGKLYRSSNLVNINENDAALLQKLHIKWICDLRSSSEVKAQPTPAIEGILNKHIPIGTAKNEETKLPVTNDTTIYEPLMGESYRVFVQSVEGFREIFTEVLEDAKAGLPFVFHCTAGKDRTGVLGALLLTLLDVPEKTIFDDYAITNRYQDDILQEMGGIVSLFSSGTEKIDLETFRPMAEARPEYLEIAFDEMKKQYGSVANYLEKGIGITATEKAAFQKEMLE | not soluble

Source: the DeepSol protein solubility set
